Results published in patent publication US20120316071A1 (published 2012).
Read-outs that look alike come from different tables or passages of the source. Blank lines part the entries; values can stand above or below the binder they belong to.

Experiments:
[1] = target: T1, Recombinant Human DLL4 (delta-like protein 4) (human, UniProt Q9NR61 27-524); experiment: ECL (MSD) multispot binding assay, DLL4 immobilised, 10 nM Fab, DLL4 signal over blank
T1 construct: Bought recombinant protein (R&D Systems Cat#1506-D4/CF); also called rHuman DLL4; Delta-like 4

[2] = target: T1, Recombinant Human DLL4 (delta-like …); experiment: ELISA on plate-coated DLL4, 100 nM Fab, signal minus noise
[3] = target: T2, Recombinant Human DLL4 (delta-like protein 4) (human, UniProt Q9NR61 27-529); experiment: 96-well plate ECL (MSD) binding assay on coated DLL4, 10 nM Fab
T2 construct: Bought recombinant human DLL4 (R&D Systems Cat#1506-D4/CF), coated on the plate; also called rHuman DLL4; Delta-like 4

[4] = target: T2, Recombinant Human DLL4 (delta-like …); experiment: ELISA on coated DLL4, 100 nM Fab
[5] = target: T2, Recombinant Human DLL4 (delta-like …); experiment: 96-well plate ECL (MSD) binding assay on coated DLL4, 10 nM Fab; remark: listed apart in the source
[6] = target: T2, Recombinant Human DLL4 (delta-like …); experiment: ELISA on coated DLL4, 100 nM Fab; remark: listed apart in the source

ECL signal [5]: 123000
ELISA signal [6]: 0.641
B4: Fab VH1-46_IGHD6-6*01_IGHJ1*01 S102A/S103P/S104F/H111F/I51T/N52L/S54T/G56H (APFF TLTH) & L6_IGKJ1*01 (Fab, V domains shown)
VH: QVQLVQSGAEVKKPGASVKVSCKASGYTFTSYYMHWVRQAPGQGLEWMGITLPTGHSTSYAQKFQGRVTMTRDTSTSTVYMELSSLRSEDTAVYYCAREEYAPFSAEYFQFWGQGTLVTVSS
VL: not shown
notes: Fab made in E. coli; CH1 with tags and kappa CL are not included

ECL signal [5]: 165000
ELISA signal [6]: 1.1
B5: Fab VH1-46_IGHD6-6*01_IGHJ1*01 S102A/S103P/S104F/H111F/N52L/S54T/G56H (APFF LTH) & L6_IGKJ1*01 (Fab, V domains shown)
VH: QVQLVQSGAEVKKPGASVKVSCKASGYTFTSYYMHWVRQAPGQGLEWMGIILPTGHSTSYAQKFQGRVTMTRDTSTSTVYMELSSLRSEDTAVYYCAREEYAPFSAEYFQFWGQGTLVTVSS
VL: not shown
notes: Fab made in E. coli; CH1 with tags and kappa CL are not included; also called H:APFF LTH & L:wt

Signal/Noise [10 nM Fab] [1]: 142
ELISA (Signal-Noise) [2]: 0.14
B10: Fab VH1-46_IGHD6-6*01_IGHJ1*01 S102A/S103P/S104F/H111F T58A & L6_IGKJ1*01 (Fab, V domains shown)
VH: QVQLVQSGAEVKKPGASVKVSCKASGYTFTSYYMHWVRQAPGQGLEWMGIINPSGGSASYAQKFQGRVTMTRDTSTSTVYMELSSLRSEDTAVYYCAREEYAPFSAEYFQFWGQGTLVTVSS
VL: not shown
notes: Fab made in E. coli: CH1 with His6/Flag tags from Plasmid A, kappa constant region from Plasmid C; also called APFF T58A

ECL signal [5]: 155000
ELISA signal [6]: 0.513
B11: Fab VH1-46_IGHD6-6*01_IGHJ1*01 S102A/S103P/S104F/H111F/I51Y/N52L/S54T/G56H (APFF YLTH) & L6_IGKJ1*01 (Fab, V domains shown)
VH: QVQLVQSGAEVKKPGASVKVSCKASGYTFTSYYMHWVRQAPGQGLEWMGIYLPTGHSTSYAQKFQGRVTMTRDTSTSTVYMELSSLRSEDTAVYYCAREEYAPFSAEYFQFWGQGTLVTVSS
VL: not shown
notes: as for B4

Further lines, the binder ahead of its results:

B1: Fab VH1-46_IGHD6-6*01_IGHJ1*01 S102A/S103P/S104F/H111F G55A & L6_IGKJ1*01 (Fab, V domains shown)
VH: QVQLVQSGAEVKKPGASVKVSCKASGYTFTSYYMHWVRQAPGQGLEWMGIINPSAGSTSYAQKFQGRVTMTRDTSTSTVYMELSSLRSEDTAVYYCAREEYAPFSAEYFQFWGQGTLVTVSS
VL: not shown
notes: Fab made in E. coli: CH1 with His6/Flag tags from Plasmid A, kappa constant region from Plasmid C; also called APFF G55A
Signal/Noise [10 nM Fab] [1]: 44.2
ELISA (Signal-Noise) [2]: 0.02

B2: Fab VH1-46_IGHD6-6*01_IGHJ1*01 S102A/S103P/S104F/H111F S54T & L6_IGKJ1*01 (Fab, V domains shown)
VH: QVQLVQSGAEVKKPGASVKVSCKASGYTFTSYYMHWVRQAPGQGLEWMGIINPTGGSTSYAQKFQGRVTMTRDTSTSTVYMELSSLRSEDTAVYYCAREEYAPFSAEYFQFWGQGTLVTVSS
VL: not shown
notes: Fab made in E. coli; CH1 with tags and kappa CL are not included; also called APFF S54T
ECL signal [3]: 57200
ELISA signal [4]: 0.08

B3: Fab VH1-46_IGHD6-6*01_IGHJ1*01 S102A/S103P/S104F/H111F S59A & L6_IGKJ1*01 (Fab, V domains shown)
VH: QVQLVQSGAEVKKPGASVKVSCKASGYTFTSYYMHWVRQAPGQGLEWMGIINPSGGSTAYAQKFQGRVTMTRDTSTSTVYMELSSLRSEDTAVYYCAREEYAPFSAEYFQFWGQGTLVTVSS
VL: not shown
notes: Fab made in E. coli: CH1 with His6/Flag tags from Plasmid A, kappa constant region from Plasmid C; also called APFF S59A
Signal/Noise [10 nM Fab] [1]: 17.1
ELISA (Signal-Noise) [2]: 0.02

B6: Fab VH1-46_IGHD6-6*01_IGHJ1*01 S102A/S103P/S104F/H111F S54G & L6_IGKJ1*01 (Fab, V domains shown)
VH: QVQLVQSGAEVKKPGASVKVSCKASGYTFTSYYMHWVRQAPGQGLEWMGIINPGGGSTSYAQKFQGRVTMTRDTSTSTVYMELSSLRSEDTAVYYCAREEYAPFSAEYFQFWGQGTLVTVSS
VL: not shown
notes: Fab made in E. coli; CH1 with tags and kappa CL are not included; also called APFF S54G
ECL signal [3]: 47000
ELISA signal [4]: 0.06

B7: Fab VH1-46_IGHD6-6*01_IGHJ1*01 S102A/S103P/S104F/H111F S54E & L6_IGKJ1*01 (Fab, V domains shown)
VH: QVQLVQSGAEVKKPGASVKVSCKASGYTFTSYYMHWVRQAPGQGLEWMGIINPEGGSTSYAQKFQGRVTMTRDTSTSTVYMELSSLRSEDTAVYYCAREEYAPFSAEYFQFWGQGTLVTVSS
VL: not shown
notes: Fab made in E. coli; CH1 with tags and kappa CL are not included; also called APFF S54E
ECL signal [3]: 36800
ELISA signal [4]: 0.04

B8: Fab VH1-46_IGHD6-6*01_IGHJ1*01 S102A/S103P/S104F/H111F I50A & L6_IGKJ1*01 (Fab, V domains shown)
VH: QVQLVQSGAEVKKPGASVKVSCKASGYTFTSYYMHWVRQAPGQGLEWMGAINPSGGSTSYAQKFQGRVTMTRDTSTSTVYMELSSLRSEDTAVYYCAREEYAPFSAEYFQFWGQGTLVTVSS
VL: not shown
notes: Fab made in E. coli: CH1 with His6/Flag tags from Plasmid A, kappa constant region from Plasmid C; also called APFF I50A
Signal/Noise [10 nM Fab] [1]: 9.8
ELISA (Signal-Noise) [2]: 0.01

B9: Fab VH1-46_IGHD6-6*01_IGHJ1*01 S102A/S103P/S104F/H111F S54A/S59N & L6_IGKJ1*01 (Fab, V domains shown)
VH: QVQLVQSGAEVKKPGASVKVSCKASGYTFTSYYMHWVRQAPGQGLEWMGIINPAGGSTNYAQKFQGRVTMTRDTSTSTVYMELSSLRSEDTAVYYCAREEYAPFSAEYFQFWGQGTLVTVSS
VL: not shown
notes: Fab made in E. coli; CH1 with tags and kappa CL are not included; also called APFF S54A/S59N
ECL signal [3]: 17300
ELISA signal [4]: 0.1
